The values that follow come from publication PMC3145545 (Molecular Biology of the Cell, 2011).

Changes are numbered by the printed parent chain.

B1: Pac11 1-86 VQ51,52DA (site 1 mutant) (domain or fragment)
chain: MERLKQLEEKRRQLKELRERRKQASLFPGSETMGHHPTEVHAKATMVSVSDATDMEEGSKIQEPQSAYLRRKEVITYDKGIQTDQI
B2: Pac11 1-86 IQ81,82DA (site 2 mutant) (domain or fragment)
chain: B1 chain with D51V, A52Q, I81D, Q82A
B3: Drosophila LC8 (dynein light chain) (natural protein)
chain: MSDRKAVIKNADMSEEMQQDAVDCATQALEKYNIEKDIAAYIKKEFDKKYNPTWHCIVGRNFGSYVTHETRHFIYFYLGQVAILLFKSG

Assay [1] deals with B3. Nature of the assay: native gel or EMSA. (In EMSA bound probe runs differently from free probe, usually more slowly.)
Assay [2] addresses B2. Nature of the assay: AUC.
Assay [3] addresses B1. Nature of the assay: AUC.

Consider B1, for which, in assay [1], the binding result was “binds”. The same measure, in the same setting: the value for B2 was “binds”. As for B3, the “stoichiometry N” value in assay [2] and in assay [3] was 1 LC8 per Pac11 in each case.

One may read the stoichiometry N as a count of units in the complex or per binding partner.
